Patent publication US20230357354A1, “CD38-BINDING CD31 PEPTIDES AND USES THEREOF” (ENCEFA, priority 2020, published 2023)

Columns and labels:
human Daudi cells = format: cell-based; conditions: for glucose uptake (2-NBDG fluorescence): glucose-deprived cells, 1 hour treatment (1 µM per figure legends; 10 µg/mL per method), 2-NBDG 500 µM 30 minutes
Procedure: Human Daudi cells cultured in 75 cm^2 flask were centrifuged ( 300 g, 3 minutes), resuspended in warmed PBS supplemented with 10 % goat serum and seeded in 96-well microplate ( 100 µL, 2 × 10^6 cells/mL) in order to deprive cells from glucose. Cells were treated with test treatments (10 µg/mL) for 1 hour (37° C.). Cells were then incubated with 500 µM of the fluorescent and non-metabolizable glucose analog 2-NBDG ((2R,3R,4S,5R)-3,4,5,6-tetrahydroxy-2-[(7-nitro-2,1,3-benzoxadiazol-4-yl)amino]hexanal; Thermo Fischer) for 30 minutes at 37° C., and washed 4 times with PBS containing 10 % of goat serum. Images were acquired using a Zeiss microscope (20 X) and the relative fluorescence intensity of 30 cells was determined using Fiji.
To determine the effect of test compounds on glucose uptake, we developed a cellular model based on the use of human Daudi cells, a cell line known to strongly express CD38.
Human Daudi cells were plated in culture medium deprived of glucose and exposed to test treatments (peptides of Table 6) for 1 hour and then incubated with the non-metabolizable, fluorescent glucose 2-NBDG. After 30 minutes of incubation, cells were washed and imaged using a microscope. Fluorescence levels were determined using Fiji.

[1] = target: recombinant His-tagged CD38 (Homo sapiens, UniProt P28907); experiment: Pepscan-based ELISA of His-tagged CD38 on CD31 peptide arrays; format: binding; conditions: for Value (binding intensity of His-tagged CD38), LOOP7 conformational peptide array: mimic type LOOP7 (single loop, mP2 CLIPS); for Value (binding intensity of His-tagged CD38), LOOP7 conformational peptide array / Value (binding intensity of His-tagged CD38), BET conformational peptide array / Value (binding intensity of His-tagged CD38), LOOP15 conformational peptide array: sample with the highest signal; for Value (binding intensity of His-tagged CD38), BET conformational peptide array: mimic type BET (β-turn mimic, mP2 CLIPS); for Value (binding intensity of His-tagged CD38), LIN15 linear peptide array: mimic type LIN15, sample with the highest signal (His-tagged CD38 9 or 20 µg/mL); for Value (binding intensity of His-tagged CD38), LOOP15 conformational peptide array: mimic type LOOP15 (single loop, mP2 CLIPS)
Source text: Different sets of sCD31 peptides were synthesized according to the following designs. Note that actual order of peptides on mini-cards in some was randomized. • Set #1 • Mimic type: linear • Label: LIN15 • Linear peptides of 15 consecutive amino acid residues in length, derived from the target sequence of sCD31 with an offset of […]. • Set #2 • Mimic type: single loop (mP2 CLIPS) • Label: LOOP7 • Constrained peptides of 9 amino acid residues in length. On positions 2-8 are incorporated 7 consecutive amino acid residues derived from the target sequence of sCD31 with an offset of 1.3 residues. Cys residues were inserted on positions 1 and 9 and joined by mP2 CLIPS in order to create a loop mimic. Native Cys residues, if present, were replaced by Ser residues. • Set #3 • Mimic type: single loop, (mP2 CLIPS) • Label: LOOP15 • Constrained peptides of 17 amino acid residues in length. On positions 2-16 are incorporated 15 consecutive amino acid residues derived from the target sequence of sCD31 with an offset of […]. Cys residues were inserted on positions 1 and 17 and joined by mP2 CLIPS in order to create a loop mimic. Native Cys residues, if present, were replaced by Ser residues. • Set #4 • Mimic type: β-turn peptide mimics (mP2 CLIPS) • Label: BET • β-turn peptide mimics of 22 amino acid residues in length. On positions 2-21 are incorporated 20 consecutive amino acid residues derived from the target sequence of sCD31 with an offset of 1.3 residues. Residues on positions 11 and 12 are replaced by a Pro-Gly motif in order to induce the β-turn formation. Cys residues were inserted on positions 1 and 22 and joined by mP2 CLIPS in order to stabilize the mimic. Native Cys residues, if present, were replaced by Ser residues.
To reconstruct epitopes of sCD31, a library of peptide-based peptide mimics was synthesized using Fmoc-based solid-phase peptide synthesis. An amino functionalized polypropylene support was obtained by grafting with a hydrophilic polymer formulation, followed by reaction with t-butyloxycarbonyl-hexamethylenediamine (BocHMDA) using dicyclohexylcarbodiimide (DCC) with N-hydroxybenzotriazole (HOBt) and subsequent cleavage of the Boc-groups using trifluoroacetic acid (TFA).
Standard Fmoc-peptide synthesis was used to synthesize peptides on the amino-functionalized solid support by custom modified JANUS liquid handling stations (Perkin Elmer).
Synthesis of structural mimics was done using CLIPS technology. CLIPS technology allows to structure peptides into single loops, double loops, triple loops, sheet-like folds, helix-like folds, and combinations thereof. CLIPS templates are coupled to cysteine residues. The side-chains of multiple cysteines in the peptides are coupled to one or two CLIPS templates. For example, a 0.5 mM solution of the P2 CLIPS (2,6-bis(bromomethyl)pyridine) is dissolved in ammonium bicarbonate (20 mM, pH 7.8)/acetonitrile (1:3, v/v). This solution is added onto the peptide arrays. The CLIPS template binds to side-chains of two cysteines as present in the solid-phase bound peptides of the peptide-arrays (455 wells plate with 3-µL wells). The peptide arrays are gently shaken in the solution for 30 to 60 minutes while completely covered in solution.
Finally, the peptide arrays are washed extensively with excess of H2O and sonicated in disrupt-buffer containing 1% SDS / 0.1 % 2,2′-(ethylenedioxy)diethanethiol in PBS (pH 7.2) at 70° C. for 30 minutes, followed by sonication in H2O for another 45 minutes.
The binding of the sample (recombinant His-tagged CD38; 9 µg/mL and 20 µg/mL) to each of the synthesized peptides was tested in a pepscan-based ELISA. The peptide arrays were incubated with primary sample solution (overnight at 4° C.). […]

NFVALEFP [SEQ ID NO: 296]
glucose uptake (2-NBDG fluorescence) (human Daudi cells): slightly decreased the activity of the peptide, although it remained overall active

TFVILEFP [SEQ ID NO: 303]
glucose uptake (2-NBDG fluorescence) (human Daudi cells): still increase glucose uptake, although to a lesser extent

NHVILEFP [SEQ ID NO: 309]
glucose uptake (2-NBDG fluorescence) (human Daudi cells): impact the glucose uptake-increasing activity of the peptide

SFVILEFP [SEQ ID NO: 302]
glucose uptake (2-NBDG fluorescence) (human Daudi cells): still increase glucose uptake, although to a lesser extent

NFVILAFP [SEQ ID NO: 298]
effect of the C-terminal deletion or alanine substitution (relative to the parent peptide) on glucose uptake (human Daudi cells; parent SEQ ID NO: 6 (deletions) or SEQ ID NO: 8 (alanine scanning), 2-NBDG fluorescence): had no effect on glucose uptake

NYVILEFP [SEQ ID NO: 305]
glucose uptake (2-NBDG fluorescence) (human Daudi cells): still increase glucose uptake

NFVIHEFP [SEQ ID NO: 318]
glucose uptake (2-NBDG fluorescence) (human Daudi cells): impact the glucose uptake-increasing activity of the peptide

NDVILEFP [SEQ ID NO: 310]
glucose uptake (2-NBDG fluorescence) (human Daudi cells): impact the glucose uptake-increasing activity of the peptide

NFVIFEFP [SEQ ID NO: 317]
glucose uptake (2-NBDG fluorescence) (human Daudi cells): increased glucose uptake, even more efficiently than SEQ ID NO: 297

NFVIDEFP [SEQ ID NO: 319]
glucose uptake (2-NBDG fluorescence) (human Daudi cells): impact the glucose uptake-increasing activity of the peptide

NFVDLEFP [SEQ ID NO: 315]
glucose uptake (2-NBDG fluorescence) (human Daudi cells): impact the glucose uptake-increasing activity of the peptide

NFVFLEFP [SEQ ID NO: 311]
glucose uptake (2-NBDG fluorescence) (human Daudi cells): still active

NFVQLEFP [SEQ ID NO: 313]
glucose uptake (2-NBDG fluorescence) (human Daudi cells): still active

NSVILEFP [SEQ ID NO: 308]
glucose uptake (2-NBDG fluorescence) (human Daudi cells): keep glucose uptake-increasing activity

QFVILEFP [SEQ ID NO: 301]
glucose uptake (2-NBDG fluorescence) (human Daudi cells): still increase glucose uptake

FELIVFN (Scramble peptide) [SEQ ID NO: 285, scramble peptide containing the same amino acid residues as NFVILEF in a different order]
glucose uptake (2-NBDG fluorescence) (human Daudi cells): not able to increase glucose uptake

NFVTLEFP [SEQ ID NO: 312]
glucose uptake (2-NBDG fluorescence) (human Daudi cells): still active

HFVILEFP [SEQ ID NO: 304]
glucose uptake (2-NBDG fluorescence) (human Daudi cells): impact the glucose uptake-increasing activity of the peptide

NFVHLEFP [SEQ ID NO: 314]
glucose uptake (2-NBDG fluorescence) (human Daudi cells): impact the glucose uptake-increasing activity of the peptide

202 (CFPEIIIQC) [compound 202]
Value (binding intensity of His-tagged CD38), LOOP7 conformational peptide array [1]: 596 mAU

273 (CVLFYNISSMPGTESYFIPEVC) [compound 273]
Value (binding intensity of His-tagged CD38), BET conformational peptide array [1]: 632 mAU

191 (CRIYDSGTC) [compound 191]
Value (binding intensity of His-tagged CD38), LOOP7 conformational peptide array [1]: 395 mAU

201 (CQEFPEIIC) [compound 201]
Value (binding intensity of His-tagged CD38), LOOP7 conformational peptide array [1]: 476 mAU

102 (ISKVSSIVVNITELF) [compound 102]
Value (binding intensity of His-tagged CD38), LIN15 linear peptide array [1]: 642 mAU

236 (CFYNISSMKSTESYFIC) [compound 236]
Value (binding intensity of His-tagged CD38), LOOP15 conformational peptide array [1]: 552 mAU

190 (CVRIYDSGC) [compound 190]
Value (binding intensity of His-tagged CD38), LOOP7 conformational peptide array [1]: 479 mAU

221 (CDIVLQSAC) [compound 221]
Value (binding intensity of His-tagged CD38), LOOP7 conformational peptide array [1]: 389 mAU

248 (CREKNSRDQNFVILEFC) [compound 248]
Value (binding intensity of His-tagged CD38), LOOP15 conformational peptide array [1]: 1073 mAU

232 (CQMLFYKDDVLFYNISC) [compound 232]
Value (binding intensity of His-tagged CD38), LOOP15 conformational peptide array [1]: 646 mAU

250 (CKNSRDQNFVILEFPVC) [compound 250]
Value (binding intensity of His-tagged CD38), LOOP15 conformational peptide array [1]: 624 mAU

249 (CEKNSRDQNFVILEFPC) [compound 249]
Value (binding intensity of His-tagged CD38), LOOP15 conformational peptide array [1]: 566 mAU

279 (CPANFTIQKEPGIVSQTQDFTC) [compound 279]
Value (binding intensity of His-tagged CD38), BET conformational peptide array [1]: 461 mAU

170 (ASKEQEGEYYCTAFN) [compound 170]
Value (binding intensity of His-tagged CD38), LIN15 linear peptide array [1]: 400 mAU

10 (CMVKLKREKNPGDQNFVILEFC; Human sCD31 peptide) [compound 10]
Value (binding intensity of His-tagged CD38), BET conformational peptide array [1]: 1497 mAU

240 (CSSMKSTESYFIPEVRC) [compound 240]
Value (binding intensity of His-tagged CD38), LOOP15 conformational peptide array [1]: 343 mAU

209 (CSYDAQFEC) [compound 209]
Value (binding intensity of His-tagged CD38), LOOP7 conformational peptide array [1]: 570 mAU

181 (CKDDVLFYC) [compound 181]
Value (binding intensity of His-tagged CD38), LOOP7 conformational peptide array [1]: 579 mAU

176 (CQSFADVSC) [compound 176]
Value (binding intensity of His-tagged CD38), LOOP7 conformational peptide array [1]: 413 mAU

174 (CTLQSFADC) [compound 174]
Value (binding intensity of His-tagged CD38), LOOP7 conformational peptide array [1]: 427 mAU

280 (CQIVVSEMLSPGRISYDAQFEC) [compound 280]
Value (binding intensity of His-tagged CD38), BET conformational peptide array [1]: 417 mAU

226 (CYYSTAFNC) [compound 226]
Value (binding intensity of His-tagged CD38), LOOP7 conformational peptide array [1]: 477 mAU

241 (CMKSTESYFIPEVRIYC) [compound 241]
Value (binding intensity of His-tagged CD38), LOOP15 conformational peptide array [1]: 325 mAU

256 (CTIQVTHLAQEFPEIIC) [compound 256]
Value (binding intensity of His-tagged CD38), LOOP15 conformational peptide array [1]: 504 mAU

180 (CYKDDVLFC) [compound 180]
Value (binding intensity of His-tagged CD38), LOOP7 conformational peptide array [1]: 585 mAU

251 (CDQNFVILEFPVEEQDC) [compound 251]
Value (binding intensity of His-tagged CD38), LOOP15 conformational peptide array [1]: 634 mAU

283 (CLSEVLRVKVPGPVDEVQISIC) [compound 283]
Value (binding intensity of His-tagged CD38), BET conformational peptide array [1]: 601 mAU

261 (CRISKVSSIVVNITELC) [compound 261]
Value (binding intensity of His-tagged CD38), LOOP15 conformational peptide array [1]: 567 mAU

259 (CVTHLAQEFPEIIIQKC) [compound 259]
Value (binding intensity of His-tagged CD38), LOOP15 conformational peptide array [1]: 343 mAU

168 (KQKASKEQEGEYYCT) [compound 168]
Value (binding intensity of His-tagged CD38), LIN15 linear peptide array [1]: 337 mAU
